The results in this text go back to US20140274782A1, “AFFINITY REAGENTS AND METHODS FOR DETECTION, PURIFICATION, AND PROTEOMIC ANALYSIS OF METHYLATED PROTEINS” (The Board of Trustees of the Leland Stanford Junior …, priority 2013, published 2014).

To fix the notation:
B1: XRN2 (protein, UniProt Q9H0D6 1-950, looked up)
5'-3' exoribonuclease 2: MGVPAFFRWLSRKYPSIIVNCVEEKPKECNGVKIPVDASKPNPNDVEFDNLYLDMNGIIHPCTHPEDKPAPKNEDEMMVAIFEYIDRLFSIVRPRRLLYMAIDGVAPRAKMNQQRSRRFRASKEGMEAAVEKQRVREEILAKGGFLPPEEIKERFDSNCITPGTEFMDNLAKCLRYYIADRLNNDPGWKNLTVILSDASAPGEGEHKIMDYIRRQRAQPNHDPNTHHCLCGADADLIMLGLATHEPNFTIIREEFKPNKPKPCGLCNQFGHEVKDCEGLPREKKGKHDELADSLPCAEGEFIFLRLNVLREYLERELTMASLPFTFDVERSIDDWVFMCFFVGNDFLPHLPSLEIRENAIDRLVNIYKNVVHKTGGYLTESGYVNLQRVQMIMLAVGEVEDSIFKKRKDDEDSFRRRQKEKRKRMKRDQPAFTPSGILTPHALGSRNSPGSQVASNPRQAAYEMRMQNNSSPSISPNTSFTSDGSPSPLGGIKRKAEDSDSEPEPEDNVRLWEAGWKQRYYKNKFDVDAADEKFRRKVVQSYVEGLCWVLRYYYQGCASWKWYYPFHYAPFASDFEGIADMPSDFEKGTKPFKPLEQLMGVFPAASGNFLPPSWRKLMSDPDSSIIDFYPEDFAIDLNGKKYAWQGVALLPFVDERRLRAALEEVYPDLTPEETRRNSLGGDVLFVGKHHPLHDFILELYQTGSTEPVEVPPELCHGIQGKFSLDEEAILPDQIVCSPVPMLRDLTQNTVVSINFKDPQFAEDYIFKAVMLPGARKPAAVLKPSDWEKSSNGRQWKPQLGFNRDRRPVHLDQAAFRTLGHVMPRGSGTGIYSNAAPPPVTYQGNLYRPLLRGQAQIPKLMSNMRPQDSWRGPPPLFQQQRFDRGVGAEPLLPWNRMLQTQNAAFQPNQYQMLAGPGGYPPRRDDRGGRQGYPREGRKYPLPPPSGRYNWN
B2: MATR3 (protein, UniProt P43243 2-847, looked up)
Matrin-3: SKSFQQSSLSRDSQGHGRDLSAAGIGLLAAATQSLSMPASLGRMNQGTARLASLMNLGMSSSLNQQGAHSALSSASTSSHNLQSIFNIGSRGPLPLSSQHRGDADQASNILASFGLSARDLDELSRYPEDKITPENLPQILLQLKRRRTEEGPTLSYGRDGRSATREPPYRVPRDDWEEKRHFRRDSFDDRGPSLNPVLDYDHGSRSQESGYYDRMDYEDDRLRDGERCRDDSFFGETSHNYHKFDSEYERMGRGPGPLQERSLFEKKRGAPPSSNIEDFHGLLPKGYPHLCSICDLPVHSNKEWSQHINGASHSRRCQLLLEIYPEWNPDNDTGHTMGDPFMLQQSTNPAPGILGPPPPSFHLGGPAVGPRGNLGAGNGNLQGPRHMQKGRVETSRVVHIMDFQRGKNLRYQLLQLVEPFGVISNHLILNKINEAFIEMATTEDAQAAVDYYTTTPALVFGKPVRVHLSQKYKRIKKPEGKPDQKFDQKQELGRVIHLSNLPHSGYSDSAVLKLAEPYGKIKNYILMRMKSQAFIEMETREDAMAMVDHCLKKALWFQGRCVKVDLSEKYKKLVLRIPNRGIDLLKKDKSRKRSYSPDGKESPSDKKSKTDGSQKTESSTEGKEQEEKSGEDGEKDTKDDQTEQEPNMLLESEDELLVDEEEAAALLESGSSVGDETDLANLGDVASDGKKEPSDKAVKKDGSASAAAKKKLKKVDKIEELDQENEAALENGIKNEENTEPGAESSENADDPNKDTSENADGQSDENKDDYTIPDEYRIGPYQPNVPVGIDYVIPKTGFYCKLCSLFYTNEEVAKNTHCSSLPHYQKLKKFLNKLAEERRQKKET
B3: TXN (protein, UniProt P10599 2-105, looked up)
Thioredoxin: VKQIESKTAFQEALDAAGDKLVVVDFSATWCGPCKMIKPFFHSLSEKYSNVIFLEVDVDDCQDVASECEVKCMPTFQFFKKGQKVGEFSGANKEKLEATINELV
B4: POLDIP3 (protein, UniProt Q9BY77 2-421, looked up)
Polymerase delta-interacting …: ADISLDELIRKRGAAAKGRLNARPGVGGVRSRVGIQQGLLSQSTRTATFQQRFDARQKIGLSDARLKLGVKDAREKLLQKDARFRIKGKVQDAREMLNSRKQQTTVPQKPRQVADAREKISLKRSSPAAFINPPIGTVTPALKLTKTIQVPQQKAMAPLHPHPAGMRINVVNNHQAKQNLYDLDEDDDGIASVPTKQMKFAASGGFLHHMAGLSSSKLSMSKALPLTKVVQNDAYTAPALPSSIRTKALTNMSRTLVNKEEPPKELPAAEPVLSPLEGTKMTVNNLHPRVTEEDIVELFCVCGALKRARLVHPGVAEVVFVKKDDAITAYKKYNNRCLDGQPMKCNLHMNGNVITSDQPILLRLSDSPSMKKESELPRRVNSASSSNPPAEVDPDTILKALFKSSGASVTTQPTEFKIKL

The first assay relates to 3×MBT domain of L3MBTL1. Briefly: Triple SILAC pull-down, 3xMBT/3xMBTD355N ratio (cytoplasmic, nuclear and chromatin fractions of 293T cells).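 Also: proteins quantified with MaxQuant, requiring at least two unique peptides and quantification in both label directions, normalized to the mean of proteins from a digested loading control.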 Format: binding, human. The conditions noted are these: SILAC ratio, pull-down 3xMBT vs 3xMBTD355N; experiment with UNC0638 in heavy SILAC media.
For B1, the “3xMBT/D355N UNC Heavy” value amounted to 2.19 log base 2.
Take B2: the “3xMBT/D355N UNC Heavy” value amounted to 1.72 log base 2.
Regarding B3, the “3xMBT/D355N UNC Heavy” value stood at 1.75 log base 2.
Same read-out and setting: in the case of B4 it was 2.51 log base 2.

Still in this assay, the particulars now being: SILAC ratio, pull-down 3xMBT vs 3xMBTD355N; experiment with UNC0638 in light SILAC media.
Consider B1, for which the “3xMBT/D355N UNC Light” value is reported as 2.76 log base 2.
On the same count and under the same terms, the value for B2 was 1.77 log base 2.
Take B3: the “3xMBT/D355N UNC Light” value was 1.93 log base 2.
Regarding B4, the “3xMBT/D355N UNC Light” value is reported as 2.76 log base 2.

A further assay concerns the target T1, G9a and GLP (Homo sapiens, UniProt Q96KQ7+Q9H9B1).
T1 sequence (Q96KQ7 2-1210 limits assumed): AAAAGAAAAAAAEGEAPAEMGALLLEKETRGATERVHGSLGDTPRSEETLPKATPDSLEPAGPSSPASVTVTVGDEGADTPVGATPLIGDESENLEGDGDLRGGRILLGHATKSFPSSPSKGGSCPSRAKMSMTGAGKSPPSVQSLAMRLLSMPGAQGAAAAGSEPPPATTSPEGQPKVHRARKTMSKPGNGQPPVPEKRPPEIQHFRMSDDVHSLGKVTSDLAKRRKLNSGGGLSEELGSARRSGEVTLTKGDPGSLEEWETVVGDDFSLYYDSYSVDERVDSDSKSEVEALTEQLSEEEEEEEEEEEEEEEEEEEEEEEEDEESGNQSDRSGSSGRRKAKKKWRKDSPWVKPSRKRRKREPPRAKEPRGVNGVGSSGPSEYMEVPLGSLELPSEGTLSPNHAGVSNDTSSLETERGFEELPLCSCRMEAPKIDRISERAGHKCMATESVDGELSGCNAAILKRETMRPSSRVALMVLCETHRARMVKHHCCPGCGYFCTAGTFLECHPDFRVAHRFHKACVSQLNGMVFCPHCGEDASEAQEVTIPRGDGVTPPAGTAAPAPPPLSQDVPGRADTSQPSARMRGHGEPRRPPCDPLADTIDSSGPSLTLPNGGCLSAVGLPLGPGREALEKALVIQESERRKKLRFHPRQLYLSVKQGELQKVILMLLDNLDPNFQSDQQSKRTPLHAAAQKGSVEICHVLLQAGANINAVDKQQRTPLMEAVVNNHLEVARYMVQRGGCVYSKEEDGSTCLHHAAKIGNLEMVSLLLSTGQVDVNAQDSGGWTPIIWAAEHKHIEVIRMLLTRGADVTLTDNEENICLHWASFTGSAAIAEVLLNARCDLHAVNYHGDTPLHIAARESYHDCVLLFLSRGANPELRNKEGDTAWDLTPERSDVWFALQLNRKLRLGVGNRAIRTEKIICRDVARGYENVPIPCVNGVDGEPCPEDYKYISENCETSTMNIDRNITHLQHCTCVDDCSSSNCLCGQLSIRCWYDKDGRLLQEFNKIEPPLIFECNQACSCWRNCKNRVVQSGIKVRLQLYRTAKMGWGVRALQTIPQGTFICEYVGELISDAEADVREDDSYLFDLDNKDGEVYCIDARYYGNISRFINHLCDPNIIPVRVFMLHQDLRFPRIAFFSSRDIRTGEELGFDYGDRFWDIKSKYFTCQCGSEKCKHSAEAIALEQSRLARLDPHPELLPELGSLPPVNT
T1 sequence (Q9H9B1 2-1298 limits assumed): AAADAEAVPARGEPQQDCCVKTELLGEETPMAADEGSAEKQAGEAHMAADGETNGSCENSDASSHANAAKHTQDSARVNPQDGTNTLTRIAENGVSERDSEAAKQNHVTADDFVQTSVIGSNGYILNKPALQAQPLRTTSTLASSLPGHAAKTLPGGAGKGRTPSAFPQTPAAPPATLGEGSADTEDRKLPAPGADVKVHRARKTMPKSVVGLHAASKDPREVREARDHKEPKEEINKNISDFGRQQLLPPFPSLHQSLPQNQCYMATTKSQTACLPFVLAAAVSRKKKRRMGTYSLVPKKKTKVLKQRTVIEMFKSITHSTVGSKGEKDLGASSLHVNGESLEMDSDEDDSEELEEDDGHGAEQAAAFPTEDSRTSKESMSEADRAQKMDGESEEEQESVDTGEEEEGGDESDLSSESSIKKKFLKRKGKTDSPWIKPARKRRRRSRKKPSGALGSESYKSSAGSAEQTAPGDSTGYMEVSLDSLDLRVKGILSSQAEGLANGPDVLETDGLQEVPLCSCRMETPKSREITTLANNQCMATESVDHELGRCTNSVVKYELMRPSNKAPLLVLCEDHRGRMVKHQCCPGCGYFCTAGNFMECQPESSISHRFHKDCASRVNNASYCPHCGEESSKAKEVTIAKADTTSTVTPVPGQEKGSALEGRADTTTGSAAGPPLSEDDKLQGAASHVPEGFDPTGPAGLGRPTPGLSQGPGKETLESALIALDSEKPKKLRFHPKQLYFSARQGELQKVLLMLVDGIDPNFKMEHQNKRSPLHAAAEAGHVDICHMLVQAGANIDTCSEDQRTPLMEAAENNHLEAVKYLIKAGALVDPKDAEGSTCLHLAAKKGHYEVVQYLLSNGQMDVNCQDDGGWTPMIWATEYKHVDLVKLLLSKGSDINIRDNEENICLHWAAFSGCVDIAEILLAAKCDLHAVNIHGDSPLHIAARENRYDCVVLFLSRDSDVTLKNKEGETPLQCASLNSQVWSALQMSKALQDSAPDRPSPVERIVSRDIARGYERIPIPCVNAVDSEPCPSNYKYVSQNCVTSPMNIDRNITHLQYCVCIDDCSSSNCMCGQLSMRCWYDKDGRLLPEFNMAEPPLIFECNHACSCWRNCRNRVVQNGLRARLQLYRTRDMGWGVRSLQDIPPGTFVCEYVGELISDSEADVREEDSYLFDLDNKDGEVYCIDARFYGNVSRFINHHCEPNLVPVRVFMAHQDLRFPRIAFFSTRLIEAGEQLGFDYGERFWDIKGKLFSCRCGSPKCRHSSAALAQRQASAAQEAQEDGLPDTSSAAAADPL
Briefly: Triple SILAC pull-down after UNC0638 treatment of 293T cells, DMSO/UNC0638 ratio of protein captured by 3×MBT.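 Also: mass spectrometry (Q-Exactive) SILAC quantitation, DMSO/UNC0638 ratio computed after subtracting 3×MBTD355N mutant pull-down background, only proteins with at least twofold 3×MBT over mutant signal considered.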 Conditions: SILAC ratio DMSO/UNC0638 of protein pulled down with 3xMBT; UNC0638 in heavy SILAC media. The format is cell-based. The arrangement: endogenous in cells; host or cells: HEK 293T.
B1: the “Relative to UNC0638 UNC Heavy” value is given as 0.34 log base 2.
The same measure, in the same setting: the value for B2 was 0.37 log base 2; that for B3 was 0.14 log base 2.
On the same count and under the same terms, the value for B4 was 0.39 log base 2.

The assay is the same for the next values; noted with them: SILAC ratio DMSO/UNC0638 of protein pulled down with 3xMBT; UNC0638 in light SILAC media.
B1: the “Relative to UNC0638 UNC Light” value is reported as 0.18 log base 2.
Turning to B2, the “Relative to UNC0638 UNC Light” value was 0.14 log base 2.
The same measure, in the same setting: the value for B3 was 0.38 log base 2; that for B4 was 0.14 log base 2.

The assay is the same for the next values; noted with them: average of UNC Light and UNC Heavy experiments.
With B1, the “Relative to UNC0638 Average” value is 0.26 log base 2.
The same measure, in the same setting: in the case of B2 it was 0.26 log base 2; in that of B3, 0.26 log base 2.
With B4, the “Relative to UNC0638 Average” value is listed as 0.26 log base 2.
